This note sets out measurements from the RNAGym collection of RNA variant scans (doi:10.1021/acssynbio.7b00057).

B1: Pistol ribozyme (parent)
chain: GGGUCGUUGUUCCAUAAUCGCGUGGAUAUGGCACGCAAGUUUCUACCGGGCACCGUAAAUGUCCGACUGGAGCCGUUCGGGCGGCUAUAAACAGACCUCAGGCCCGAAGCGUGGCGGCACCUGCCGCCGGUGGUAAAAAAGAUCGGAAGAGCACACGUCU

In the data set the parent is B1. The data set is described as follows: aptazyme ON/OFF ratio, guanine; higher = stronger switching; co-transcriptional cleavage with and without guanine.
Take U7A U8C G9C U11G C12U C13G: the “aptazyme ON/OFF ratio” value amounted to 1.19. The figure for U7A U8C G9C U11G C12U C13A is 1.17; for U7A U8C G9C U11G C12U C13U it is 1.27. The figure for U7A U8C G9A U11G C12A is 1.11; for U7A U8C G9A U11G C12G it is 1.24. Then U7A U8C G9A U11G C12U, with 1.79. Regarding U7A U8C G9U U10A U11A, the “aptazyme ON/OFF ratio” value was 1.37. The figure for U7A U8C G9U U10A C12G C13G is 1.22; for U7A U8C G9U U10A C12G C13U it is 1.32; for U7A U8C G9U U10A C12G C13A it is 1.11. The figure for U7A U8C G9C U10C U11G C13U is 1.04; for U7A U8C G9C U10C U11G C13G it is 1.16; for U7A U8C G9C U10C U11G C13A it is 1.07. Then U7A U8C G9C U10C C12G, with 1.03; and U7A U8C G9C U10C C12U, with 1.04. Consider U7A U8C G9C U10C C12A, for which the “aptazyme ON/OFF ratio” value amounted to 1.03. The figure for U7A U8C G9C U10G C12A C13A is 1.06. The figure for U7A U8C G9C U10G C12A C13U is 1.07; for U7A U8C G9C U10G C12A C13G it is 1.12.

U7A U8C G9C U10A U11C C12A: the “aptazyme ON/OFF ratio” value turned out to be 1.1.

For U7A U8C G9C U10A U11C C12G, the “aptazyme ON/OFF ratio” value stood at 1.26. Regarding U7A U8C G9C U10A U11C C12U, the “aptazyme ON/OFF ratio” value came out at 1.13. Turning to U7A U8C G9C U11C C12A C13G, the “aptazyme ON/OFF ratio” value worked out at 1.04. Then U7A U8C G9C U11C C12A C13A, with 1.06; and U7A U8C G9C U11C C12A C13U, with 1.04; and U7A U8C G9C U10C U11A C12A C13G, with 1.06. Then U7A U8C G9C U10C U11A C12A C13A, with 1.01; and U7A U8C G9C U10C U11A C12A C13U, with 1.03.

Consider U7A U8C G9C U10G U11A C12G, for which the “aptazyme ON/OFF ratio” value is 1.11. Then U7A U8C G9C U10G U11A C12A, with 1.26; and U7A U8C G9C U10G U11A C12U, with 1.04; and U7A U8C G9C U10A C12U, with 1.11.

Regarding U7A U8C G9C U10A C12A, the “aptazyme ON/OFF ratio” value stood at 1.09. Then U7A U8C G9C U10A C12G, with 1.21; and U7A U8C G9C U10G C12U C13A, with 1.06. Regarding U7A U8C G9C U10G C12U C13U, the “aptazyme ON/OFF ratio” value was found to be 1.26.

With U7A U8C G9C U10G C12U C13G, the “aptazyme ON/OFF ratio” value was 1.11. The figure for U7A U8C G9C U11C C12U C13U is 1.06; for U7A U8C G9C U11C C12U C13A it is 1.04; for U7A U8C G9C U11C C12U C13G it is 1.09. The figure for U7A U8C G9C U10G U11A C12U C13G is 1.01; for U7A U8C G9C U10G U11A C12U C13A it is 1.07. Then U7A U8C G9C U10G U11A C12U C13U, with 1.03.

On to U7A U8C G9A U11A C12G, for which the “aptazyme ON/OFF ratio” value is 1.26. The figure for U7A U8C G9A U11A C12U is 1.25; for U7A U8C G9C U10C C12U C13G it is 1.06; for U7A U8C G9C U10C C12U C13U it is 1.04. The figure for U7A U8C G9C U10C C12U C13A is 1.04. Then U7A U8C G9C U10A U11G C12U C13G, with 1.14. As for U7A U8C G9C U10A U11G C12U C13A, the “aptazyme ON/OFF ratio” value turned out to be 1.13. Consider U7A U8C G9C U10A U11G C12U C13U, for which the “aptazyme ON/OFF ratio” value is 1.14.

Regarding U7A U8C G9C U10G U11C C12A C13A, the “aptazyme ON/OFF ratio” value stood at 1.05. Then U7A U8C G9C U10G U11C C12A C13G, with 1.08. The figure for U7A U8C G9C U10G U11C C12A C13U is 1.09; for U7A U8C G9C U10A U11C C12A C13U it is 1.14. Then U7A U8C G9C U10A U11C C12A C13G, with 1.16; and U7A U8C G9C U10A U11C C12A C13A, with 1.15. For U7A U8C G9C U10G U11G C12A, the “aptazyme ON/OFF ratio” value came to 1.24. Then U7A U8C G9C U10G U11G C12G, with 1.13; and U7A U8C G9C U10G U11G C12U, with 1.05; and U7A U8C G9U U10A C12U, with 1.18. Take U7A U8C G9U U10A C12A: the “aptazyme ON/OFF ratio” value was 1.25.

Consider U7A U8C G9U U10A C12G, for which the “aptazyme ON/OFF ratio” value was determined as 1.23.

Regarding U7A U8C G9C U10G U11C C13U, the “aptazyme ON/OFF ratio” value was 1.1. As for U7A U8C G9C U10G U11C C13A, the “aptazyme ON/OFF ratio” value is 1.21.

For U7A U8C G9C U10G U11C C13G, the “aptazyme ON/OFF ratio” value came to 1.33. Then U7A U8C G9C U11G C13G, with 1.13; and U7A U8C G9C U11G C13U, with 1.1. The figure for U7A U8C G9C U11G C13A is 1.05.

In the case of U7A U8C G9C C12A C13G, the “aptazyme ON/OFF ratio” value is 1.14. The figure for U7A U8C G9C C12A C13U is 1.07; for U7A U8C G9C C12A C13A it is 1.11. The figure for U7A U8C G9C U10C C12G C13G is 1.12. Then U7A U8C G9C U10C C12G C13U, with 1.08; and U7A U8C G9C U10C C12G C13A, with 1.04; and U7A U8C G9C U10A U11A C12U C13A, with 1.09. Turning to U7A U8C G9C U10A U11A C12U C13U, the “aptazyme ON/OFF ratio” value amounted to 1.05. Then U7A U8C G9C U10A U11A C12U C13G, with 1.08. Then U7A U8C G9C U10A U11C C12G C13A, with 1.29; and U7A U8C G9C U10A U11C C12G C13G, with 1.27. U7A U8C G9C U10A U11C C12G C13U: the “aptazyme ON/OFF ratio” value worked out at 1.27. The figure for U7A U8C G9A U11A C12A C13G is 1.09; for U7A U8C G9A U11A C12A C13U it is 1.17.
